Legend:
[1] = target: T1, Ec-MscL (mechanosensitive channel of large conductance) (Escherichia coli, UniProt P0A742); experiment: MicroScale Thermophoresis; supported by patch clamp activation at […] DHS and MTS-PEG5000 competition on cysteine mutants; assay type: binding
T1 construct: wild type, recombinant, detergent-solubilized channel

[2] = target: T2, Ec-MscL (mechanosensitive channel of large conductance) (Escherichia coli, UniProt P0A742, K55T); experiment: MicroScale Thermophoresis, labeled purified protein in DDM (main text prints […]); assay type: binding
T2 construct: recombinant, detergent-solubilized channel

[3] = target: the molecule itself; experiment: non-reducing SDS-PAGE with Western blot (dimer band); purified His-tagged cysteine mutants, 5 ug in 50 mM KPi pH 7.5, 150 mM NaCl, 4 mM DM, 22°C; nonreducing sample buffer with iodoacetamide; blot with Penta.His; samples of the MTS-PEG5000 versus DHS competition experiment, mock lanes included

T1 sequence (P0A742 whole entry): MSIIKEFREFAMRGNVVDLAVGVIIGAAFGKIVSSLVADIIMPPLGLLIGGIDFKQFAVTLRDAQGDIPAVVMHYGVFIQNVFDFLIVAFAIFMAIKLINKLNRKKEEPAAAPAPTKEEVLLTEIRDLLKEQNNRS
T2 sequence (P0A742 whole entry K55T): as the sequence (P0A742 whole entry) above, with K55T counted along it

Molecule	Kd [1]	Kd [2]	binding result [3]
CN[C@@H]1[C@H](O[C@H]2[C@H](O[C@H]3[C@H](O)[C@@H](O)[C@H](NC(=N)N)[C@@H](O)[C@@H]3NC(=N)N)O[C@@H](C)[C@]2(O)CO)O[C@@H](CO)[C@H](O)[C@H]1O [DHS, dihydrostreptomycin]	9.81 ± 0.13 mM	0.601 ± 0.0551 mM	–
A114C Ec-MscL (Escherichia coli mechanosensitive channel of large conductance, cysteine mutant) (natural protein, UniProt P0A742 1-136, looked up, MscL, mechanosensitive channel of large conductance, Escherichia coli (Ec-MscL); single cysteine mutant; source: E. coli PB104 (pB10) or PB116 (pET21a), purified (Talon resin, in DM); not shown: His6, C-terminal, kept) MSIIKEFREFAMRGNVVDLAVGVIIGAAFGKIVSSLVADIIMPPLGLLIGGIDFKQFAVTLRDAQGDIPAVVMHYGVFIQNVFDFLIVAFAIFMAIKLINKLNRKKEEPAAAPCPTKEEVLLTEIRDLLKEQNNRS	–	–	binds
T116C Ec-MscL (Escherichia coli mechanosensitive channel of large conductance, cysteine mutant) (natural protein, UniProt P0A742 1-136, looked up, MscL, mechanosensitive channel of large conductance, Escherichia coli (Ec-MscL); single cysteine mutant; source: E. coli PB104 (pB10) or PB116 (pET21a), purified (Talon resin, in DM); not shown: His6, C-terminal, kept) MSIIKEFREFAMRGNVVDLAVGVIIGAAFGKIVSSLVADIIMPPLGLLIGGIDFKQFAVTLRDAQGDIPAVVMHYGVFIQNVFDFLIVAFAIFMAIKLINKLNRKKEEPAAAPAPCKEEVLLTEIRDLLKEQNNRS	–	–	binds
K117C Ec-MscL (Escherichia coli mechanosensitive channel of large conductance, cysteine mutant) (natural protein, UniProt P0A742 1-136, looked up, MscL, mechanosensitive channel of large conductance, Escherichia coli (Ec-MscL); single cysteine mutant; source: E. coli PB104 (pB10) or PB116 (pET21a), purified (Talon resin, in DM); not shown: His6, C-terminal, kept) MSIIKEFREFAMRGNVVDLAVGVIIGAAFGKIVSSLVADIIMPPLGLLIGGIDFKQFAVTLRDAQGDIPAVVMHYGVFIQNVFDFLIVAFAIFMAIKLINKLNRKKEEPAAAPAPTCEEVLLTEIRDLLKEQNNRS	–	–	binds
